These results are taken from patent US20240228595A1.

In test [1] the target is SARS-COV-2 Delta RBD (Sino Biological Cat. No. 40592-V08H90) (SARS-CoV-2 Delta) (UniProt P0DTC2). In words: ELISA, SARS-CoV-2-Delta RBD coated, antibody titrated.
Test [2] deals with SARS-COV-2 Omicron BA.2 RBD (AcroBiosystems Cat. No. SPD-C522g) (SARS-CoV-2 Omicron BA.2) (UniProt P0DTC2). Kind of test: ELISA, SARS-CoV-2-Omicron BA.2 RBD coated, antibody titrated.
In test [3] the target is SARS-COV-2 Omicron RBD recombinant protein (Sino Biological 40592-V08H121) (SARS-CoV-2 Omicron BA.1) (UniProt P0DTC2). Kind of test: ELISA, SARS-CoV-2-Omicron BA.1 RBD coated, antibody titrated. On the technique in general: An ELISA detects its analyte on a solid surface through an enzyme-linked reagent.
In test [4] the target is SARS-COV-2 Omicron BA.1 spike on HIV-1 based pseudovirus (Example 3) (SARS-CoV-2 Omicron BA.1) (UniProt P0DTC2). In words: cell-based or functional assay.
The target in test [5] is SARS-COV-2 Omicron BA.2 spike on HIV-1 based pseudovirus (SARS-CoV-2 Omicron BA.2) (UniProt P0DTC2). Kind of test: cell-based or functional assay.

In the case of S309 (Sotrovimab) (antibody), the EC50 in test [1] is 2 ng/mL; in test [2] it was 4 ng/mL; in test [3], 6 ng/mL. For the same substance, the figures for the pseudovirus neutralization, IC50 in test [4] and in test [5] were 0.446 µg/mL and 2.75 µg/mL, respectively. Further, in test [5], the pseudovirus neutralization, fold drop of activity against Omicron BA.2 turned out to be 30 fold.

As usually defined, the EC50 is the concentration giving half of the maximal effect.
